Reference: patent US9670288B2, “Osteoprotegerin in neuroprotection” (Massachusetts Eye and Ear Infirmary, priority 2011, dated 2017)
Entries after “also recorded” stand apart in the source; their conditions may differ.

How the values were obtained:
Format in all cases: cell-based, mice
Schwann cells = assay: TRAIL induced cell death (cleaved caspase 3) in cultured Schwann cells; conditions: for TRAIL induced cleaved caspase 3 (cell death): opg −/− Schwann cells, pretreatment, TRAIL 100 ng/ml, OPG 100 ng/l, PD98059 20 nM, zoledronate 10 μM
ERK kinase [1] = assay: TRAIL induced ERK phosphorylation in cultured Schwann cells (immunoblot); conditions: for TRAIL induced ERK phosphorylation / ERK activation: opg −/− Schwann cells, pretreatment, TRAIL 100 ng/ml, OPG 100 ng/l, PD98059 20 nM, zoledronate 10 μM
[2] = test system: spiral ganglion cells (SGCs) / Schwann cells; assay: H2O2 induced oxidative cell death of cultured spiral ganglion cells (nuclear condensation, Hoechst 33342); conditions: for H2O2 induced oxidative cell death: opg −/− SGCs/Schwann cells, pretreatment followed by co-treatment, OPG 100 ng/L, PD 98059 20 nM, zoledronate 10 μM, 500 μM H2O2
ERK kinase [3] = assay: H2O2 induced ERK kinase activation in cultured Schwann cells / SGCs (immunoblot, p-ERK); conditions: opg −/− Schwann cells; pre-treatment 3 hours and co-treatment; OPG 100 ng/L, PD 98059 20 nM, zoledronate 10 μM; 500 μM H2O2
opg −/− spheres [4] = assay: Apoptosis in floating spiral ganglion spheres (cleaved caspase 3 staining); conditions: third generation opg −/− spheres, Rankl 100 ng/ml, OPG 100 ng/ml, zoledronate 1 μM, 3 days, passaged
Description: For each experiment, spiral ganglia of four to six 1-3 day old WT or opg −/− mice were dissected in HBSS. The SGCs (neurons and glia) were dissociated using trypsin (0.25%) for 13 min in PBS at 37° C. The enzymatic digestion was stopped by adding 10% FBS in DMEM-high glucose medium. The tissue was washed twice and gently triturated. The cell suspension was passed through a 70 μm cell strainer (BD Labware). Single cells were cultured in DMEM-high glucose and F12 (mixed 1:1) supplemented with N2 and B27 (Invitrogen), EGF (20 ng/mL; Chemicon), bFGF (10 ng/mL; Chemicon), IGF-1 (50 ng/mL; Chemicon), and heparan sulfate (50 ng/mL; Sigma). Newly formed spheres were cultured in ultra-low-cluster plates (Costar) for 4 days and were termed first generation spheres. Spheres were subsequently passaged every 4 days until the third generation, when 5-10 spheres were collected and dissociated (Oshima K, Grimm C M, Corrales C E, Senn P, Martinez Monedero R, Géléoc GS, Edge A, Holt J R, Heller S. 2007. J Assoc Res Otolaryngol. 2007; 8:18-31). Spheres were passaged at a clonal level for 3 more times. Before each passage, the sphere morphology was assessed and the spheres were counted using the Metamorph counting software. At the third generation, spiral ganglion spheres from WT and opg −/− mice were separated into 4 groups and treated with Rankl (100 ng/ml), OPG (100 ng/ml) or zoledronate (1 μM). The control group was untreated. After 3 days of treatment, the spheres were passaged and treated again for 3 days. Twelve hours before plating, proliferating cells in the spheres were labeled with BrdU (3 μg/ml). After 12 hours, the spheres were plated for 1 hour on poly-L-lysine (0.01%, Cultrex)-coated glass coverslips (Marienfeld GmbH, Germany), fixed in 4% paraformaldehyde for 10 min, treated with 1N HCl for antigen retrieval for BrdU staining, incubated for 1 hour in blocking solution (0.3% Triton, 15% goat serum in 1×PBS), and incubated overnight with either anti-cleaved caspase3 antibody to assess cell death, or anti-BrdU antibody to assess cell proliferation. After 3 washing steps with 1×PBS, the spheres were incubated in secondary antibody for 2 hours (568 Alexa Fluor anti rat or anti mouse). Nuclei were stained with DAPI. Staining was visualized by epifluorescence microscopy (Axioskop 2 Mot Axiocam, Zeiss). Counting was done with the Metamorph software.

opg −/− spheres [5] = assay: Proliferation of floating spiral ganglion spheres (BrdU staining); conditions: third generation opg −/− spheres, Rankl 100 ng/ml, OPG 100 ng/ml, zoledronate 1 μM, 3 days, passaged
Description: For each experiment, spiral ganglia of four to six 1-3 day old WT or opg −/− mice were dissected in HBSS. The SGCs (neurons and glia) were dissociated using trypsin (0.25%) for 13 min in PBS at 37° C. The enzymatic digestion was stopped by adding 10% FBS in DMEM-high glucose medium. The tissue was washed twice and gently triturated. The cell suspension was passed through a 70 μm cell strainer (BD Labware). Single cells were cultured in DMEM-high glucose and F12 (mixed 1:1) supplemented with N2 and B27 (Invitrogen), EGF (20 ng/mL; Chemicon), bFGF (10 ng/mL; Chemicon), IGF-1 (50 ng/mL; Chemicon), and heparan sulfate (50 ng/mL; Sigma). Newly formed spheres were cultured in ultra-low-cluster plates (Costar) for 4 days and were termed first generation spheres. Spheres were subsequently passaged every 4 days until the third generation, when 5-10 spheres were collected and dissociated (Oshima K, Grimm C M, Corrales C E, Senn P, Martinez Monedero R, Géléoc GS, Edge A, Holt J R, Heller S. 2007. J Assoc Res Otolaryngol. 2007; 8:18-31). Spheres were passaged at a clonal level for 3 more times. Before each passage, the sphere morphology was assessed and the spheres were counted using the Metamorph counting software. At the third generation, spiral ganglion spheres from WT and opg −/− mice were separated into 4 groups and treated with Rankl (100 ng/ml), OPG (100 ng/ml) or zoledronate (1 μM). […]

p38, JNK or NF-κB p65 = assay: p38, JNK and NF-κB p65 activity after TRAIL in cultured Schwann cells (immunoblot); conditions: opg −/− Schwann cells treated with TRAIL

## COc1cccc(-c2cc(=O)c3ccccc3o2)c1N [PD 98059, reference compound]
Schwann cells
  TRAIL induced cleaved caspase 3 (cell death): suppressed
ERK kinase [1]
  TRAIL induced ERK phosphorylation / ERK activation: suppressed
[2]
  H2O2 induced oxidative cell death: rescued
ERK kinase [3]
  H2O2 induced ERK kinase activation: suppressed

## O=P(O)(O)C(O)(Cn1ccnc1)P(=O)(O)O [zoledronate, reference compound]
Schwann cells
  TRAIL induced cleaved caspase 3 (cell death): suppressed
ERK kinase [1]
  TRAIL induced ERK phosphorylation / ERK activation: suppressed
Opg −/− spheres [4]
  apoptosis in opg−/− spheres (number of cleaved caspase 3 positive cells): reduced; also recorded: decreased
[2]
  H2O2 induced oxidative cell death: rescued
ERK kinase [3]
  H2O2 induced ERK kinase activation: suppressed
Opg −/− spheres [5]
  proliferation of opg−/− spheres (number of BrdU positive cells): significantly enhanced; also recorded: increased

B1: TRAIL: TNF-related apoptosis-inducing ligand, recombinant (protein, UniProt P50591 1-281, looked up)
Tumor necrosis factor ligand …: MAMMEVQGGPSLGQTCVLIVIFTVLLQSLCVAVTYVYFTNELKQMQDKYSKSGIACFLKEDDSYWDPNDEESMNSPCWQVKWQLRQLVRKMILRTSEETISTVQEKQQNISPLVRERGPQRVAAHITGTRGRSNTLSSPNSKNEKALGRKINSWESSRSGHSFLSNLHLRNGELVIHEKGFYYIYSQTYFRFQEEIKENTKNDKQMVQYIYKYTSYPDPILLMKSARNSCWSKDAEYGLYSIYQGGIFELKENDRIFVSVTNEHLIDMDHEASFFGAFLVG
Schwann cells; Schwann cells treated with recombinant TRAIL (100 ng/ml)
  cleavage of caspase 3 / cell death caused by TRAIL itself: increased; also recorded: induced cell death
ERK kinase [1]; cells treated with TRAIL (100 ng/ml)
  ERK phosphorylation caused by TRAIL itself: activated
p38, JNK or NF-κB p65
  p38, JNK or NF-κB p65 activity after TRAIL: did not affect

B2: RANKL: RANK ligand, from R & D Systems (protein, UniProt O14788 140-317, looked up)
Tumor necrosis factor ligand …: IRAEKAMVDGSWLDLAKRSKLEAQPFAHLTINATDIPSGSHKVSLSSWYHDRGWAKISNMTFSNGKLIVNQDGFYYLYANICFRHHETSGDLATEYLQLMVYVTKTSIKIPSSHTLMKGGSTKYWSGNSEFHFYSINVGGFFKLRSGEEISIEVSNPSLLDPDQDATYFGAFKVRDID
Opg −/− spheres [4]
  apoptosis in opg−/− spheres (number of cleaved caspase 3 positive cells): significantly increased
Opg −/− spheres [4]; listed as Rankl
  apoptosis in opg−/− spheres (number of cleaved caspase 3 positive cells): increased

B3: OPG: Osteoprotegerin, cytokine receptor of the TNF receptor superfamily; recombinant protein from R & D Systems (protein)
chain: MNNLLCCALVFLDISIKWTTQETFPPKYLHYDEETSHQLLCDKCPPGTYLKQHCTAKWKTVCAPCPDHYYTDSWHTSDECLYCSPVCKELQYVKQECNRTHNRVCECKEGRYLEIEFCLKHRSCPPGFGVVQAGTPERNTVCKRCPDGFFSNETSSKAPCRKHTNCSVFGLLLTQKGNATHDNICSGNSESTQKCGIDVTLCEEAFFRFAVPTKFTPNWLSVLVDNLPGTKVNAESVERIKRQHSSQEQTFQLLKLWKHQNKDQDIVKKIIQDIDLCENSVQRHIGHANLTFEQLRSLMESLPGKKVGAEDIEKTIKACKPSDQILKLLSLWRIKNGDQDTLKGLMHALKHSKTYHFPKTVTQSLKKTIRFLHSFTMYKLYQKLFLEMIGNQVQSVKISCL
modifications: homo sapiens OPG
notes: Osteoprotegerin, cytokine receptor of the TNF receptor superfamily; recombinant protein from R & D Systems
Schwann cells
  TRAIL induced cleaved caspase 3 (cell death): suppressed
ERK kinase [1]
  TRAIL induced ERK phosphorylation / ERK activation: suppressed
Opg −/− spheres [4]
  apoptosis in opg−/− spheres (number of cleaved caspase 3 positive cells): reduced; also recorded: decreased
[2]; opg −/− SGCs, no H2O2
  cell death without H2O2 treatment: did not significantly affect
[2]
  H2O2 induced oxidative cell death: rescued
ERK kinase [3]
  H2O2 induced ERK kinase activation: suppressed
Opg −/− spheres [5]
  proliferation of opg−/− spheres (number of BrdU positive cells): significantly enhanced; also recorded: increased
